From article PMC9683861 (Journal of Molecular Biology, 2022)
Positions count from the first letter of the chain named. Non-standard residues stand in square brackets, D forms with d. No end group written: not given here. pT = C[C@@H](OP(=O)(O)O)[C@H](N)C(=O)O; pS = N[C@@H](COP(=O)(O)O)C(=O)O

Tests used:
[1] = molecular target: T1, FITC-labeled SARS-CoV-2 N pT205 phosphopeptide WSSRGpTSPARM (SARS-CoV-2, also: FITC label, position not given here); assay: fluorescence polarisation
T1 peptide: WSSRG[pT]SPARM

[2] = molecular target: T2, 14-3-3σ (1-231 aa) (75EEK77→75AAA77, Clu3) (human, UniProt P31947 1-231, 75EEK77 → 75AAA77); assay: crystal structure
T2 sequence: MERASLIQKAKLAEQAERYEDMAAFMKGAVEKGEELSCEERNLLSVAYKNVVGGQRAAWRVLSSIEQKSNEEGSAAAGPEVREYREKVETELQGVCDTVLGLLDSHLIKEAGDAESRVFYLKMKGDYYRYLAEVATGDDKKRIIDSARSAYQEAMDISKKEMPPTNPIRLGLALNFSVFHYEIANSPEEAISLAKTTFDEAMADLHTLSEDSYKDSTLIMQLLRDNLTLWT

[3] = molecular target: T3, 14-3-3σ (1-231 aa) (159KKE161→159AAA161, Clu1) (human, UniProt P31947 1-231, 159KKE161 → 159AAA161); assay: crystal structure
T3 sequence: T2 sequence with A75E, A76E, A77K, K159A, K160A, E161A

[4] = molecular target: T4, FITC-labeled SARS-CoV-2 N pS197 phosphopeptide WSSRNpSTPGSS (SARS-CoV-2, also: FITC label, position not given here); assay: fluorescence polarisation
T4 peptide: WSSRN[pS]TPGSS

B1: MBP-tagged full-length human 14-3-3 gamma (γ) (natural protein)
chain: MVDREQLVQKARLAEQAERYDDMAAAMKNVTELNEPLSNEERNLLSVAYKNVVGARRSSWRVISSIEQKTSADGNEKKIEMVRAYREKIEKELEAVCQDVLSLLDNYLIKNCSETQYESKVFYLKMKGDYYRYLAEVATGEKRATVVESSEKAYSEAHEISKEHMQPTHPIRLGLALNYSVFYYEIQNAPEQACHLAKTAFDDAIAELDTLNEDSYKDSTLIMQLLRDNLTLWTSDQQDDDGGEGNN
KD ratio pS197 peptide / pT205 peptide (selectivity coefficient) [1]: ~7 fold

B2: Unlabeled SARS-CoV-2 N pS197 phosphopeptide WSSRNpSTPGSS (peptide)
peptide: WSSRN[pS]TPGSS
binding result [2]: binds

B3: Unlabeled SARS-CoV-2 N pT205 phosphopeptide WSSRGpTSPARM (peptide)
peptide: WSSRG[pT]SPARM
binding result [3]: binds

B4: MBP-tagged full-length human 14-3-3 sigma (σ) (natural protein)
chain: MERASLIQKAKLAEQAERYEDMAAFMKGAVEKGEELSCEERNLLSVAYKNVVGGQRAAWRVLSSIEQKSNEEGSEEKGPEVREYREKVETELQGVCDTVLGLLDSHLIKEAGDAESRVFYLKMKGDYYRYLAEVATGDDKKRIIDSARSAYQEAMDISKKEMPPTNPIRLGLALNFSVFHYEIANSPEEAISLAKTTFDEAMADLHTLSEDSYKDSTLIMQLLRDNLTLWTADNAGEEGGEAPQEPQS
KD ratio to the 14-3-3γ/pT205 pair [4]: ~10 fold
fold weaker affinity than of 14-3-3σ for the pT205 peptide [4]: ~3 fold
